Results: the domain aggregation screens of Martell et al. (2025)

test: soluble fraction after stress (log2 fold change); higher = more stays soluble; pooled small domains, quantitative proteomics; details: stress: 50 degC
Procedure, shortened: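 The measure of aggregation propensity here is the base-two logarithm of the fold change in the soluble amount of each protein after stress. A higher value means more of that protein stays in solution. Stress was applied at 50°C to pooled libraries of small protein domains, read out by high-throughput quantitative proteomics.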

Q: For “HMNVDSLIGQTARVIVDINNNDSIGYALVGGQEWTARAENDNDIIPKDTLVEIVGVSGVKLIVRRKE”, which “soluble fraction (log2)” value is on record?
A: The value was -0.044.

Q: Which “soluble fraction (log2)” value does the source give for “HMAAEFERKNGIVYFFHSSEKPHLNYPHVHARYGEDTISISLRDFTVIGSFSSKKKQKEAVEYVKNK” here?
A: Its value is -0.662.

Q: For “HMGSLKISNPVKDTLWIQGVDGLKSIEIYSSTGQLVKTILGNQGDVSSLPKGVYFLKINTPSESLTAKIIK”, which “soluble fraction (log2)” value is on record?
A: Its value is -0.0698.

Q: For “HMQRNLILKLDTDQPEIYKKLESIFVEINGLLVPFFIEKIIWSKQDSLNILFKNSSEALVEQLIGKNVFLP”, which “soluble fraction (log2)” value is on record?
A: Its value is 0.0989.

Q: With “HMASVAKHIRRLRTERHMTQGDLAEKLFVTRQTVSAWETGKAQPDLETLERIAVVLGVEVTELIYGAP” as the sequence, how does the “soluble fraction (log2)” value read?
A: The value was -0.0295.

Q: Which “soluble fraction (log2)” value does the source give for “HMNSVKSPMPGTILGLKVSVGDTVKVGDELLVLESMKMENMINSPIDGTVSKILISEGDSVQHGQELII” here?
A: The value was 0.215.

Q: Which “soluble fraction (log2)” value does the source give for “HMSSGTAYATDAVNVRSGPGTSYTVLGYLSRGEKVTITGTVSNGWTQIQLPGNRLGYVSSAYLSASYPS” here?
A: Its value is -0.259.

Q: For “HMIQTMVVTDLKNGTIFKENGHPFIVLKYEHIKVSRGSAQVRVKMKNLITGQVLEKSWQSTAHVDDT”, which “soluble fraction (log2)” value is on record?
A: The value was -2.1.

Q: Which “soluble fraction (log2)” value does the source give for “HMQITSTDEIEKMIDELIAANPEQTKQYQNGNHKVAGWFVGQMMKASKGKANPQMVNNLLQKKL” here?
A: Its value is 0.0271.

Q: With “HMLKFPIGTHVGKKKPSANLSLPNKHGVVIGHGERRNAKGAIMRFYIVETTHSSRPEEWAPGITYPL” as the sequence, how does the “soluble fraction (log2)” value read?
A: Its value is -2.5.

Q: Which “soluble fraction (log2)” value does the source give for “HMDRESFIKLGRELARSAFAHVGQKSTEKALETAADVLRLKDPNEVLARLGSAELTGRQVVQAIYPELI” here?
A: The value was -0.0704.

Q: Which “soluble fraction (log2)” value does the source give for “HMENKIIKNAAHATLKVKKDAGIEITTELIREAVILFHRIYSPNDNPNINWERIINELESHYT” here?
A: Its value is -2.77.

Q: Which “soluble fraction (log2)” value does the source give for “HMIIMVNLYQIWDKEVQGLDSVGAKPEQIEARRQAIAAHFESKARQAGMSSKDIYATLDNFDTYSRQKTS” here?
A: Its value is -2.28.

Q: Which “soluble fraction (log2)” value does the source give for “HMALPDSEKRQWLVDEVNERGLKLPDDVLEYLFARVGRSQAHLVDVIEKLDFESLAQSRKLTIPFVREVLK” here?
A: Its value is -0.152.

Q: Which “soluble fraction (log2)” value does the source give for “HMFMSKTAMVAIISEADKYGLFNIPEGLSVEKTADEIFEGHIEVDFDKLKNELDFVYKNEALEKQFQEN” here?
A: The value was -0.534.

Q: For “HMNDLIFSTLAEYDRDTITEIISVVDNTRGIGYEVELVRKDLIAMAAQAEARRDYLPSVIGDVEVFKRNLL”, which “soluble fraction (log2)” value is on record?
A: Its value is 0.0286.

Q: With “HMDYKSTLQELVQTVKKSVTYEVIDEEGPSHNKTFTSIVKIDGIVMGKGTAGSKKASEQEAARDALSKR” as the sequence, how does the “soluble fraction (log2)” value read?
A: Its value is 0.271.

Q: For “HMTGMEAAEFGKRIMKLRKQKGMTQSKLAEQINVSNKAISRWETGEGFPEITLLKPLAKALGTTVDELFGE”, which “soluble fraction (log2)” value is on record?
A: Its value is -0.204.

Q: Which “soluble fraction (log2)” value does the source give for “HMTKGVWHTVKKGENLYRISLYYEVPQQEIKKANKIETENIVVGQKLFIPNTTKKSPIFALTP” here?
A: The value was -1.49.

Q: Which “soluble fraction (log2)” value does the source give for “HMRFEWFDTLTDREKEIFGLIATGFDNQQIADRLQLAEQTVRNNISTIYSKLEVKDRFEIIRLANTI” here?
A: The value was -0.706.

Q: Which “soluble fraction (log2)” value does the source give for “HMKNETFAITSEDAGKRLDVWLTNILGDYSRSYVERLVEQGNVTVGGKTVKAGYKLKAGDSVQVSIPGPK” here?
A: Its value is 0.138.

Q: For “HMHSGFHSAILDVDRAVKEGKTLYEALNKYPYIFDETFRSLVRAGEASGELPSILSKLALYLEEQSK”, which “soluble fraction (log2)” value is on record?
A: The value was -1.16.

Q: With “HMSKETTYEVLSLKGDEWQTDTIYSDRDEAIEAARNLHGDPHIDGAKVISEVYDDKTGGSKETTIFNT” as the sequence, how does the “soluble fraction (log2)” value read?
A: The value was 0.226.

Q: With “HMDTLKDFISGVSIVFENKYSVGDNVTIGDFRGDVIELGMKTTKIRAYTGEVLIIPNHLVEKVINH” as the sequence, how does the “soluble fraction (log2)” value read?
A: Its value is -1.51.

Q: Which “soluble fraction (log2)” value does the source give for “HMGGKWSMPIIYILSKGKMRFKELERSVEGINTRMLVKELKNMEANGIVTREVFPTVPPTVEYALT” here?
A: The value was -0.922.

Q: With “HMLTGNTAKLFAHLVEVMNPKEFVKINRQTVIVEAGIPRGSVGAAIAKLLETGHLIANASGAYKLT” as the sequence, how does the “soluble fraction (log2)” value read?
A: Its value is 0.322.

Q: For “HMNSNTIIINDIMTKIGKEVKNFTEIYSIILKALAEHGEEYVRTNTEYALKNFTGNFDIFLEQLLLK”, which “soluble fraction (log2)” value is on record?
A: The value was -0.201.

Q: Which “soluble fraction (log2)” value does the source give for “HMENFIPDDPKRIEIGMSVLHQRFGKGKVMQLEGNLPDMKATVNFEGEGQKQLLLKYARLKIV” here?
A: Its value is -0.232.

Q: Which “soluble fraction (log2)” value does the source give for “HMASLASVAYETLRQALDNFQYVPGDRFSESEVGQQLGMSRTPVREALVRLQREGYISVLPKMGWVVNQ” here?
A: Its value is -1.64.

Q: With “HMAYMETIERVEALAPGTKFNLKALFGTDWTQSRGTKLTLGKTFYEMVESGYVKTAKVLGKDSSNIMQYER” as the sequence, how does the “soluble fraction (log2)” value read?
A: Its value is -0.107.

Q: For “HMLLQTRQRHEALAALGYFKGDVAAAWGPASEEALRAAQAAFGITVDGKWGPQTEDAIQGALQV”, which “soluble fraction (log2)” value is on record?
A: Its value is -0.213.

Q: With “HMRSIVETLTDRELEIFQLIGNGFSTGEIARRLNLSPHTIETHRKNIKDKLGLSSGSELNKQAIQWVLSS” as the sequence, how does the “soluble fraction (log2)” value read?
A: Its value is 0.153.

Q: With “HMKIVPEPGTVLIREYQEERHEVTVTLDGAFDYKGTLYSSLSEIARLITGTRWSGPVFFGLRS” as the sequence, how does the “soluble fraction (log2)” value read?
A: The value was -0.4.

Q: Which “soluble fraction (log2)” value does the source give for “HMNREENIQIGRDLLERELRKQGMDLQENLRQEVLLDGAKKLGFNNTDDLLAAIGDLKVTPAMFIGKIA” here?
A: The value was 0.0695.

Q: For “HMNKKLEMKIEQLDLSVRLFNSLKRSGIYTVAQIIKLTEEDVMRFRSLGRKSFKELKEKLSEHGLEFE”, which “soluble fraction (log2)” value is on record?
A: Its value is -2.15.

Q: Which “soluble fraction (log2)” value does the source give for “HMEGPALKVWKARYLRAAILEQLLSDRWDDRGGQPIRVVVNEPTNSLLIRIPRHLWPEAEKLLQELDQR” here?
A: The value was -1.02.

Q: With “HMNRITEFVVPEGTKKIRADKLLAESFPDHSRSDFHRAFDASLVRLEGQPISKNRKISQGDVLVFEMPEI” as the sequence, how does the “soluble fraction (log2)” value read?
A: Its value is 0.281.

Q: For “HMSVSATQMDAFVRQLRARLSSADGLDDAARLVRQDLEPFLGRFSDETERDFAAAIEQVRGSIRPVEI”, which “soluble fraction (log2)” value is on record?
A: Its value is 0.0229.
